Test results as given in article PMC10427645, “Extracellular Pgk1 interacts neural membrane protein enolase-2 to improve the neurite outgrowth of motor neurons” (Communications Biology, 2023).

Molecular target: T1, Eno2-Myc (mouse Enolase-2 fused with Myc) (mouse, UniProt P17183 1-434)
T1 construct: Pgk1-Flag was added to the medium of Sf21 cells expressing this protein, followed by BS3 cross-linking; source: Sf21 insect cells (Baculovirus, pVL-Eno2-Myc), expressed on or in the cells, not purified
T1 sequence (P17183 whole entry, the tested form may be a part): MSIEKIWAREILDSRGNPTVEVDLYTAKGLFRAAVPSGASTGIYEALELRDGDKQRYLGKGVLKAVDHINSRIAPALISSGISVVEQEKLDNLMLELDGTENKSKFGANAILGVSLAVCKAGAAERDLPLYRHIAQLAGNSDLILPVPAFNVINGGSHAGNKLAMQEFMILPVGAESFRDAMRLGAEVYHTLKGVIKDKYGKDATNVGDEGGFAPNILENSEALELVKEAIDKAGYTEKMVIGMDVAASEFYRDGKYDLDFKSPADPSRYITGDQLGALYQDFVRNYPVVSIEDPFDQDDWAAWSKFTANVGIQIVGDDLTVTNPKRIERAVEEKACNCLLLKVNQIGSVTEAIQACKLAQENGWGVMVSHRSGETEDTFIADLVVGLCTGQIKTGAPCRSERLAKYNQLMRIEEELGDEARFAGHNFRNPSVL
Experiment: cross-linking + co-IP; cell surface crosslinking-IP: Sf21 cells expressing the Myc-tagged protein incubated 2 h with recombinant Flag-tagged Pgk1 or fragment in the medium, BS3 cross-linking, lysates immunoprecipitated with anti-Flag or anti-Myc beads, western blot with anti-Flag and anti-Myc
Conditions: one partner purified

B1: recombinant mouse Pgk1 fused with Flag (Pgk1-Flag) (natural protein, UniProt P09411 1-417, looked up)
chain: MSLSNKLTLDKLDVKGKRVVMRVDFNVPMKNNQITNNQRIKAAVPSIKFCLDNGAKSVVLMSHLGRPDGVPMPDKYSLEPVAAELKSLLGKDVLFLKDCVGPEVENACANPAAGTVILLENLRFHVEEEGKGKDASGNKVKAEPAKIDAFRASLSKLGDVYVNDAFGTAHRAHSSMVGVNLPQKAGGFLMKKELNYFAKALESPERPFLAILGGAKVADKIQLINNMLDKVNEMIIGGGMAFTFLKVLNNMEIGTSLYDEEGAKIVKDLMSKAEKNGVKITLPVDFVTADKFDENAKTGQATVASGIPAGWMGLDCGTESSKKYAEAVGRAKQIVWNGPVGVFEWEAFARGTKSLMDEVVKATSRGCITIIGGGDTATCCAKWNTEDKVSHVSTGGGASLELLEGKVLPGVDALSNV
notes: phosphoglycerate kinase 1 (Pgk1), mouse, full-length coding region (1-417), cDNA cloned from NSC34 and C2C12 cells; also called extracellular Pgk1; phosphoglycerate kinase 1; source: Sf21 insect cells (Baculovirus expression system), purified (anti-Flag beads, eluted with 3x Flag peptide)
fold, intensity ratio of Flag relative to Myc in the Eno2-Myc plus Pgk1-Flag group against the Eno2-Myc group (set as 1): 8 fold | fold, intensity ratio of Myc relative to Flag in the Pgk1-Flag plus Eno2-Myc group against the Pgk1-Flag group (set as 1): 14 fold
